From patent US20120134993A1 (ZymoGenetics, published 2012)

B2: recombinant human FGF-17 (ligand, UniProt O60258 23-216, looked up)
chain: TQGENHPSPNFNQYVRDQGAMTDQLSRRQIREYQLYSRTSGKHVQVTGRRISATAEDGNKFAKLIVETDTFGSRVRIKGAESEKYICMNKRGKLIGKPSGKSKDCVFTEIVLENNYTAFQNARHEGWFMAFTRQGRPRQASRSRQNQREAHFIKRLYQGQLPFPNHAEKQKQFEFVGSAPTRRTKRTRRPQPLT
B3: recombinant human FGF-8b (ligand, UniProt P55075-3 23-215, looked up)
chain: QVTVQSSPNFTQHVREQSLVTDQLSRRLIRTYQLYSRTSGKHVQVLANKRINAMAEDGDPFAKLIVETDTFGSRVRVRGAETGLYICMNKKGKLIAKSNGKGKDCVFTEIVLENNYTALQNAKYEGWYMAFTRKGRPRKGSKTRQHQREVHFMKRLPRGHHTTEQSLRFEFLNYPPFTRSLRGSQRTWAPEPR

Experiments:
recombinant human FGF6 [1] = biological target: T1, recombinant human FGF6 (human, UniProt P10767 83-208, limits assumed); test: SPR (Biacore T100), FGFR-Fc captured on protein A, FGF6 analyte with heparin, bivalent analyte model (ka1)
T1 sequence (looked up): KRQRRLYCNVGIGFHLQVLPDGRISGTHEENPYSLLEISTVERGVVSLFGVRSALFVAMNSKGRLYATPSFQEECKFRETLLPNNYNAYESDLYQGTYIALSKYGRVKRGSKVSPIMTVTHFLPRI
Description: (§1) Materials and Methods: Binding kinetics and affinity studies were performed on a Biacore T100™ system (GE Healthcare, Piscataway, N.J.). Methods for the Biacore T100™ were programmed using Biacore T100™ Control Software, v 2.0. Since each of the FGF receptor molecules contained a human Fc domain, biotinylated protein-A (Thermo Fisher Scientific Inc, Rockford, Ill.) was used as a capture reagent for these studies. Biotinylated protein-A was diluted to concentration of 50 μg/mL in HBS-EP buffer (10 mM HEPES, 150 mM NaCl, 3 mM EDTA, 0.05% Surfactant P20; GE Healthcare, Piscataway, N.J.), and then captured to all four flow cells of a SA (streptavidin) sensor chip. A density of approximately 1100 RU was obtained for each flow cell. Each FGF receptor molecule was subsequently captured via protein-A onto a separate flow cell of the SA chip at an approximate density of 150-250 RU. The Biacore instrument measures the mass of protein bound to the sensor chip surface, and thus, capture of the receptor was verified for each cycle.
(§2) For kinetic binding studies, serial 1:5 dilutions of FGF ligands were prepared from 200 nM-0.06 nM. These samples were injected over the surface and allowed to specifically bind to the FGF receptor captured on the sensor chip. Injections of each ligand concentration were performed with an association time of 7 minutes and dissociation time of 15 minutes. Kinetic binding studies were performed with a flow rate of 50 μL/min. All binding experiments were performed at 25° C. in HBS-P buffer (10 mM HEPES, 150 mM NaCl, 0.05% Surfactant P20, pH 7.4; GE Healthcare, Piscataway, N.J.), containing 50 μg/mL heparin (Calbiochem, La Jolla, Calif.).
(§3) Between cycles, the flow cell was washed with 20 mM hydrochloric acid to regenerate the surface. This wash step removed both the captured FGF receptor and any bound FGF ligand from the protein-A surface, and allowed for the subsequent binding of the next test sample. Data was compiled using the Biacore T100™ Evaluation software (version 2.0). Data was processed by subtracting reference flow cell and blank injections. Baseline stability was assessed to ensure that the regeneration step provided a consistent binding surface throughout the sequence of injections. Duplicate injection curves were checked for reproducibility. Binding curves were globally fit to the bivalent analyte model.

recombinant human FGF-8b [2] = biological target: B3; test: direct binding ELISA, FGF-8b coated, FGFR-Fc titrated with heparin, anti-human Fc-HRP
Description: (§4) To determine the binding capability of FGFR-Fc to their respective ligands, an ELISA was run. Recombinant human FGF-8b or FGF-17 (R&D Systems) was plated at 100 nM on a Nunc Maxisorp 96-well plate for 1 h at room temperature with shaking. The plates were blocked with BLOTTO (Thermo Fisher Scientific, Rockford, Ill.) for 1 h at room temperature, then washed 5 times with ELISA C buffer (137 mM NaCl, 2.7 mM KCl, 7.2 mM Na₂HPO₄, 1.5 mM KH₂PO₄, 0.05% (v/w) polysorbate 20, pH 7.2). FGFR-Fcs were diluted to 100 nM with PBS/0.1×BLOTTO/10 ug/ml porcine heparin (Sigma, St. Louis, Mo.) and then 1:2 serial dilutions were made, ending at 0.10 nM. 100 μL of FGFR-Fcs were plated and incubated at 4° C. overnight. The following day, the plates were washed 5 times with ELISA C and then incubated with 2.5 μg/mL horseradish peroxidase-conjugated anti-human Fc antibody (Jackson ImmunoResearch Laboratories, West Grove, Pa.) for 1 h at room temperature with shaking. After 5 washes with ELISA C, 100 μL of OPD in citrate buffer (5 mg of o-phenylenediamine in 63 mM sodium citrate, 37 mM citric acid, pH 5.0, 0.03% H₂O₂) was added for detection. After 2-5 minutes, the reaction was stopped with 1 N H₂SO₄. The plates were read at 490 nm using SoftMaxPro software.

recombinant human FGF6 [3] = biological target: T1, recombinant human FGF6; test: SPR (Biacore T100), FGFR-Fc captured on protein A, FGF6 analyte with heparin, bivalent analyte model (kd1)
Description: as §1, §2, §3

recombinant human FGF-17 [4] = biological target: B2; test: direct binding ELISA, FGF-17 coated, FGFR-Fc titrated with heparin, anti-human Fc-HRP
Description: as §4

recombinant human FGF6 [5] = biological target: T1, recombinant human FGF6; test: SPR (Biacore T100), FGFR-Fc captured on protein A, FGF6 analyte with heparin, bivalent analyte model (KD1)
Description: as §1, §2, §3

recombinant human FGF6 [6] = biological target: T1, recombinant human FGF6; test: SPR (Biacore T100), FGFR-Fc captured on protein A, FGF6 analyte with heparin, bivalent analyte model (KA1)
Description: as §1, §2, §3

recombinant human FGF4 = biological target: T2, recombinant human FGF4 (human, UniProt P08620 31-206, limits assumed); test: cell-based or functional assay
T2 sequence (looked up): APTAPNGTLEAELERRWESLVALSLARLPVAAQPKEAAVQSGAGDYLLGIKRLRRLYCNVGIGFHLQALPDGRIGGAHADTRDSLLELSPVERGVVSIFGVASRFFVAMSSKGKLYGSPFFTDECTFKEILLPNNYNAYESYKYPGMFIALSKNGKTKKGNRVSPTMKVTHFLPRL

recombinant human FGF6 [7] = biological target: T1, recombinant human FGF6; test: cell-based or functional assay
recombinant human FGF1 = recombinant human FGF1 (human, UniProt P05230 16-155); test: cell-based or functional assay
recombinant human FGF2 = recombinant human FGF2 (human, UniProt P09038 143-288, limits assumed); test: cell-based or functional assay
recombinant human FGF-8b [8] = biological target: B3; test: cell-based or functional assay
human FGF-9 = human FGF-9 (human, UniProt P31371 4-208); test: cell-based or functional assay
[9] = biological target: T3, human FGFR4-Fc (R&D Systems) (human, UniProt P22455 22-369); test: ELISA: FGF-17 coated at 100 nM, FGFR-Fc 100 to 0.10 nM in 1:2 steps with 10 ug/ml heparin, anti-human Fc-HRP, OD 490 nm
T3 construct: Bought; also called FGFR4 (R&D systems); R&D FGFR4; not shown: Fc of the commercial fusion; not described
Description: as §4

[10] = biological target: T3, human FGFR4-Fc (R&D Systems); test: ELISA: FGF-8b coated at 100 nM, FGFR-Fc 100 to 0.10 nM in 1:2 steps with 10 ug/ml heparin, anti-human Fc-HRP, OD 490 nm
Description: as §4

recombinant human FGF-17 [11] = biological target: B2; test: ELISA: FGF-17 coated at 100 nM, FGFR-Fc 100 to 0.10 nM in 1:2 steps with 10 ug/ml heparin, anti-human Fc-HRP, OD 490 nm
Description: as §4

recombinant human FGF1, sequence (P05230 16-155 limits assumed): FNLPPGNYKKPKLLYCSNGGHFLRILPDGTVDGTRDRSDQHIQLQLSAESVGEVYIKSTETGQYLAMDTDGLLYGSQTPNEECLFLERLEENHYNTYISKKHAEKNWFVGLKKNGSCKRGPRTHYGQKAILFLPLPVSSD
recombinant human FGF2, sequence (P09038 143-288 limits assumed): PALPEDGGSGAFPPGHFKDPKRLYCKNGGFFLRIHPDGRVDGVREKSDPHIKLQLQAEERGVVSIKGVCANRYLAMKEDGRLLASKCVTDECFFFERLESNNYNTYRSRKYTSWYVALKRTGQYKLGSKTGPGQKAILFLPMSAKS

B1: FGFR3IIIc(23-375)(S249W) Fc5, full-length FGFR3-Fc S249W (A2256F) (Fc fusion)
chain: ESLGTEQRVVGRAAEVPGPEPGQQEQLVFGSGDAVELSCPPPGGGPMGPTVWVKDGTGLVPSERVLVGPQRLQVLNASHEDSGAYSCRQRLTQRVLCHFSVRVTDAPSSGDDEDGEDEAEDTGVDTGAPYWTRPERMDKKLLAVPAANTVRFRCPAAGNPTPSISWLKNGREFRGEHRIGGIKLRHQQWSLVMESVVPSDRGNYTCVVENKFGSIRQTYTLDVLERWPHRPILQAGLPANQTAVLGSDVEFHCKVYSDAQPHIQWLKHVEVNGSKVGPDGTPYVTVLKTAGANTTDKELEVLSLHNVTFEDAGEYTCLAGNSIGFSHHSAWLVVLPAEEELVEADEAGSVYAGEPKSSDKTHTCPPCPAPEAEGAPSVFLFPPKPKDTLMISRTPEVTCVVVDVSHEDPEVKFNWYVDGVEVHNAKTKPREEQYNSTYRVVSVLTVLHQDWLNGKEYKCKVSNKALPSSIEKTISKAKGQPREPQVYTLPPSRDELTKNQVSLTCLVKGFYPSDIAVEWESNGQPENNYKTTPPVLDSDGSFFLYSKLTVDKSRWQQGNVFSCSVMHEALHNHYTQKSLSLSPGK
notes: also called FGFR3 A2256F; FGFR3A2256F
kon (recombinant human FGF6 [1]): 600000 M⁻¹ s⁻¹
IC50 (recombinant human FGF-8b [2]): 37.7 nM
koff (recombinant human FGF6 [3]): 0.0005 s⁻¹
IC50 (recombinant human FGF-17 [4]): 8.66 nM
Kd (recombinant human FGF6 [5]): 0.8 nM
Ka (recombinant human FGF6 [6]): 1e+09 M⁻¹
IC50, FGF-stimulated HUVEC proliferation (3H-thymidine) (recombinant human FGF4): 0.74 nM
IC50, FGF-stimulated HUVEC proliferation (3H-thymidine) (recombinant human FGF6 [7]): 0.95 nM
IC50, FGF-stimulated HUVEC proliferation (3H-thymidine) (recombinant human FGF1): 0.82 nM
IC50, FGF-stimulated HUVEC proliferation (3H-thymidine) (recombinant human FGF2): 1 nM
Proliferation IC50, FGF8b-stimulated LNCap cells (3H-thymidine) (recombinant human FGF-8b [8]): 0.01 nM
Proliferation IC50, FGF-9-stimulated HCO osteoblasts (3H-thymidine) (human FGF-9): 0.84 nM

B2
binding result [9]: binds

B3
binding result [10]: binds

B4: FGFR2alphaIIIc(145-377) Fc5, truncated FGFR2-Fc (A2559F) (Fc fusion)
chain: SENSNNKRAPYWTNTEKMEKRLHAVPAANTVKFRCPAGGNPMPTMRWLKNGKEFKQEHRIGGYKVRNQHWSLIMESVVPSDKGNYTCVVENEYGSINHTYHLDVVERSPHRPILQAGLPANASTVVGGDVEFVCKVYSDAQPHIQWIKHVEKNGSKYGPDGLPYLKVLKAAGVNTTDKEIEVLYIRNVTFEDAGEYTCLAGNSIGISFHSAWLTVLPAPGREKEITASPDYLEEPKSSDKTHTCPPCPAPEAEGAPSVFLFPPKPKDTLMISRTPEVTCVVVDVSHEDPEVKFNWYVDGVEVHNAKTKPREEQYNSTYRVVSVLTVLHQDWLNGKEYKCKVSNKALPSSIEKTISKAKGQPREPQVYTLPPSRDELTKNQVSLTCLVKGFYPSDIAVEWESNGQPENNYKTTPPVLDSDGSFFLYSKLTVDKSRWQQGNVFSCSVMHEALHNHYTQKSLSLSPGK
notes: also called FGFR2A2559F; FGFR2 A2559F
binding result (recombinant human FGF-17 [11]): no binding (tested: 100 nM)

B5: FGFR2alphaIIIc(145-377)(P253R) Fc5, truncated FGFR2-Fc P253R (A2561F) (Fc fusion)
chain: SENSNNKRAPYWTNTEKMEKRLHAVPAANTVKFRCPAGGNPMPTMRWLKNGKEFKQEHRIGGYKVRNQHWSLIMESVVPSDKGNYTCVVENEYGSINHTYHLDVVERSRHRPILQAGLPANASTVVGGDVEFVCKVYSDAQPHIQWIKHVEKNGSKYGPDGLPYLKVLKAAGVNTTDKEIEVLYIRNVTFEDAGEYTCLAGNSIGISFHSAWLTVLPAPGREKEITASPDYLEEPKSSDKTHTCPPCPAPEAEGAPSVFLFPPKPKDTLMISRTPEVTCVVVDVSHEDPEVKFNWYVDGVEVHNAKTKPREEQYNSTYRVVSVLTVLHQDWLNGKEYKCKVSNKALPSSIEKTISKAKGQPREPQVYTLPPSRDELTKNQVSLTCLVKGFYPSDIAVEWESNGQPENNYKTTPPVLDSDGSFFLYSKLTVDKSRWQQGNVFSCSVMHEALHNHYTQKSLSLSPGK
notes: also called FGFR2 A2561F; construct #1950
binding result (recombinant human FGF-17 [11]): no binding (tested: 100 nM)
